Tested on: E. necator
Experiment: Leaf disc assay, dry inoculum (settling tower), decrease in disease severity / hyphal growth (Example 2)
Conditions: decrease in disease severity (hyphal growth) relative to untreated control, value ± SE; for % decrease =/− SE TP1: time point 1 (untreated control hyphal growth ≥50%); for % decrease =/− SE TP2: time point 2

Molecule	% decrease =/− SE TP1	% decrease =/− SE TP2
GS3616 (nucleic acid) sense: UUAAAAGUUGCGGUUUAACUUAAGCUGUAGCCGCAACAGUUUCAGCUGUCCCAGCUAGUCCUUCUGAUUGAAGUUUAUCAUUAGUAAUCCCUUUAGCGAUGGCGCCAUUAGUACCUUCGGUUGAGUUGCCAACAUUAGAUACUUCGCCAGCACCAUCAGAUACAUGUGUAGUUAAUUCUUCAGAGGUCUUGUCCGGACUAUCUAUUGCGAUCUUUACUGCAAUCUCACGACCUUGAACUUCUUUUCCAUUCAUUUCGGCAACAGCCCUAUUUUGAAGUUCAUUAGAUGCUAAGUUCACAAAGCCAAACCCACGGCCUUUCCGAGGUUCGUUGCGGGCCUGAAGCUUUUUAACCAUGAAUUUUGGAAUAGGACGCAGAGCAAUUUUGGCAGAUACUGGUUC antisense: GAACCAGUAUCUGCCAAAAUUGCUCUGCGUCCUAUUCCAAAAUUCAUGGUUAAAAAGCUUCAGGCCCGCAACGAACCUCGGAAAGGCCGUGGGUUUGGCUUUGUGAACUUAGCAUCUAAUGAACUUCAAAAUAGGGCUGUUGCCGAAAUGAAUGGAAAAGAAGUUCAAGGUCGUGAGAUUGCAGUAAAGAUCGCAAUAGAUAGUCCGGACAAGACCUCUGAAGAAUUAACUACACAUGUAUCUGAUGGUGCUGGCGAAGUAUCUAAUGUUGGCAACUCAACCGAAGGUACUAAUGGCGCCAUCGCUAAAGGGAUUACUAAUGAUAAACUUCAAUCAGAAGGACUAGCUGGGACAGCUGAAACUGUUGCGGCUACAGCUUAAGUUAAACCGCAACUUUUAA	14 ± 4%	–
GS3617 (nucleic acid) sense: UCAUGGAAAGAGUAGUUGGAUACGAGAUAUAGAAGGCUGUGAUGCCUUCAGUGCGAUAGAUAUAGCGGGCACAAUCACUCAGUGAUCUAUAAAUUUUGCGAGAGUUAUGCAUUUGCAUUCUUUGCUUUAUUACAUCAAAUGGGUUCAUUAAAGCAUCACUUGCAAUUGUUGCGCAUGCCCCACUUGUAACUAUGUAGCUUCAGUAAGUGCUCAAUAUCAAGGAUAAAUUGGCGAUGUAGUCAUAUAUGUC antisense: GACAUAUAUGACUACAUCGCCAAUUUAUCCUUGAUAUUGAGCACUUACUGAAGCUACAUAGUUACAAGUGGGGCAUGCGCAACAAUUGCAAGUGAUGCUUUAAUGAACCCAUUUGAUGUAAUAAAGCAAAGAAUGCAAAUGCAUAACUCUCGCAAAAUUUAUAGAUCACUGAGUGAUUGUGCCCGCUAUAUCUAUCGCACUGAAGGCAUCACAGCCUUCUAUAUCUCGUAUCCAACUACUCUUUCCAUGA	22 ± 6%	14 ± 6%
GS3615 (nucleic acid) sense: UAUCAUUAGUAAUCCCUUUAGCGAUGGCGCCAUUAGUACCUUCGGUUGAGUUGCCAACAUUAGAUACUUCGCCAGCACCAUCAGAUACAUGUGUAGUUAAUUCUUCAGAGGUCUUGUCCGGACUAUCUAUUGCGAUCUUUACUGCAAUCUCACGACCUUGAACUUCUUUUCCAUUCAUUUCGGCAACAGCCCUAUUUUGAAGUUCAUUAGAUGCUAAGUUCACAAAGCCAAACCCACGGCCUUUCCGAGG antisense: CCUCGGAAAGGCCGUGGGUUUGGCUUUGUGAACUUAGCAUCUAAUGAACUUCAAAAUAGGGCUGUUGCCGAAAUGAAUGGAAAAGAAGUUCAAGGUCGUGAGAUUGCAGUAAAGAUCGCAAUAGAUAGUCCGGACAAGACCUCUGAAGAAUUAACUACACAUGUAUCUGAUGGUGCUGGCGAAGUAUCUAAUGUUGGCAACUCAACCGAAGGUACUAAUGGCGCCAUCGCUAAAGGGAUUACUAAUGAUA	4 ± 5%	5 ± 5%
GS3613 (nucleic acid) sense: UGUAGCCGCAACAGUUUCAGCUGUCCCAGCUAGUCCUUCUGAUUGAAGUUUAUCAUUAGUAAUCCCUUUAGCGAUGGCGCCAUUAGUACCUUCGGUUGAGUUGCCAACAUUAGAUACUUCGCCAGCACCAUCAGAUACAUGUGUAGUUAAUUCUUCAGAGGUCUUGUCCGGACUAUCUAUUGCGAUCUUUACUGCAAUCUCACGACCUUGAACUUCUUUUCCAUUCAUUUCGGCAACAGCCCUAUUUUGAAGUUCAUUAGAUGCUAAGUUCACAAAGCCAAACCCACGGCCUUUCCGAGGUUCGUUGCGGGCCUGAAGCUUUUUAACCAUGAAUUUUGGAAUAGGACGCA antisense: UGCGUCCUAUUCCAAAAUUCAUGGUUAAAAAGCUUCAGGCCCGCAACGAACCUCGGAAAGGCCGUGGGUUUGGCUUUGUGAACUUAGCAUCUAAUGAACUUCAAAAUAGGGCUGUUGCCGAAAUGAAUGGAAAAGAAGUUCAAGGUCGUGAGAUUGCAGUAAAGAUCGCAAUAGAUAGUCCGGACAAGACCUCUGAAGAAUUAACUACACAUGUAUCUGAUGGUGCUGGCGAAGUAUCUAAUGUUGGCAACUCAACCGAAGGUACUAAUGGCGCCAUCGCUAAAGGGAUUACUAAUGAUAAACUUCAAUCAGAAGGACUAGCUGGGACAGCUGAAACUGUUGCGGCUACA	11 ± 3%	–
GS3618 (nucleic acid) sense: CGUAAGCCUUUGAUGGGUUCAGAAAUGUAGAUACAGAUUCGUAUGCGAGAAGUUGAAGUGCUGUAAAUGGUACAGUCAUGGAAAGAGUAGUUGGAUACGAGAUAUAGAAGGCUGUGAUGCCUUCAGUGCGAUAGAUAUAGCGGGCACAAUCACUCAGUGAUCUAUAAAUUUUGCGAGAGUUAUGCAUUUGCAUUCUUUGCUUUAUUACAUCAAAUGGGUUCAUUAAAGCAUCACUUGCAAUUGUUGCGCAUGCCCCACUUGUAACUAUGUAGCUUCAGUAAGUGCUCAAUAUCAAGGAUAAAUUGGCGAUGUAGUCAUAUAUGUCUGAUUCCUUAAUCAAAAUUCUUAAUACAGACCUGCUGCAAUAGGAUGAUGAGCUCCUGUUUGAUUACCUCCCAUG antisense: CAUGGGAGGUAAUCAAACAGGAGCUCAUCAUCCUAUUGCAGCAGGUCUGUAUUAAGAAUUUUGAUUAAGGAAUCAGACAUAUAUGACUACAUCGCCAAUUUAUCCUUGAUAUUGAGCACUUACUGAAGCUACAUAGUUACAAGUGGGGCAUGCGCAACAAUUGCAAGUGAUGCUUUAAUGAACCCAUUUGAUGUAAUAAAGCAAAGAAUGCAAAUGCAUAACUCUCGCAAAAUUUAUAGAUCACUGAGUGAUUGUGCCCGCUAUAUCUAUCGCACUGAAGGCAUCACAGCCUUCUAUAUCUCGUAUCCAACUACUCUUUCCAUGACUGUACCAUUUACAGCACUUCAACUUCUCGCAUACGAAUCUGUAUCUACAUUUCUGAACCCAUCAAAGGCUUACG	27 ± 4%	–
GS3612 (nucleic acid) sense: AUGAGCUGGUCUUUCAGUGGAAUAUCUGUCAAUAUUACAGCUUGAUAUGAAUCAAACUGGGAGAGAUCAGAAACUAAGCUUGUGGAGCUGUGAAUCUUAACAGGGGUGUAAGCAUUUAGUUCCGAAACUCGUUGAGCUGAGACAAUAUCUCUAGGUUUUCCUAUAUCUUCUGGGUUAAGAAAGAAUUGAGAUGAUAGGUCAGCGAUAGUUGCGGGAGCGGGAUCGUAUAAUGUUAGACUUUUAACUCCAGCCAGAGCUAUAUUCUUAGCUAUUUCGAUACCAAGACCUUUCAAGCCAAUAAUAAGAAUAUUCGAUGCACUCAUUCGUUUCAUAGCCUCGUGUCCAAGAACGUAGAGUUGCCUACUGUAUAAAGACUCAUCGAUAACAUUAUUAUUUUCUU antisense: AAGAAAAUAAUAAUGUUAUCGAUGAGUCUUUAUACAGUAGGCAACUCUACGUUCUUGGACACGAGGCUAUGAAACGAAUGAGUGCAUCGAAUAUUCUUAUUAUUGGCUUGAAAGGUCUUGGUAUCGAAAUAGCUAAGAAUAUAGCUCUGGCUGGAGUUAAAAGUCUAACAUUAUACGAUCCCGCUCCCGCAACUAUCGCUGACCUAUCAUCUCAAUUCUUUCUUAACCCAGAAGAUAUAGGAAAACCUAGAGAUAUUGUCUCAGCUCAACGAGUUUCGGAACUAAAUGCUUACACCCCUGUUAAGAUUCACAGCUCCACAAGCUUAGUUUCUGAUCUCUCCCAGUUUGAUUCAUAUCAAGCUGUAAUAUUGACAGAUAUUCCACUGAAAGACCAGCUCAU	22 ± 6%	–

— US12077763B2, “RNA-based control of powdery mildew” (Greenlight Biosciences, Inc., priority 2021, dated 2024)
